Numbered stars: 1 amine (or outer) side, 2 acyl side, 3 side chain; on linkers, the order of the positions; unused ones are H or OH. Bridge positions count the residues as written; N and C are the ends. Side chains are listed from the residue outwards. Ends that are not written are not given here. * marks the point of attachment. C20 diacid = O=C(O)CCCCCCCCCCCCCCCCCCC(=O)*; γGlu = O=C(O)[C@H](CCC(=O)[*:2])N[*:1]; AEEA = NCCOCCOCC(=O)O
T1: human calcitonin receptor (human, UniProt P30988 25-474)
T1 construct: whole, on cells; Assayed as cell membranes of BHK tk'ts 13 cells stably transfected with the human calcitonin receptor (Assay VII); also called hCTR; hCT
T1 sequence (looked up): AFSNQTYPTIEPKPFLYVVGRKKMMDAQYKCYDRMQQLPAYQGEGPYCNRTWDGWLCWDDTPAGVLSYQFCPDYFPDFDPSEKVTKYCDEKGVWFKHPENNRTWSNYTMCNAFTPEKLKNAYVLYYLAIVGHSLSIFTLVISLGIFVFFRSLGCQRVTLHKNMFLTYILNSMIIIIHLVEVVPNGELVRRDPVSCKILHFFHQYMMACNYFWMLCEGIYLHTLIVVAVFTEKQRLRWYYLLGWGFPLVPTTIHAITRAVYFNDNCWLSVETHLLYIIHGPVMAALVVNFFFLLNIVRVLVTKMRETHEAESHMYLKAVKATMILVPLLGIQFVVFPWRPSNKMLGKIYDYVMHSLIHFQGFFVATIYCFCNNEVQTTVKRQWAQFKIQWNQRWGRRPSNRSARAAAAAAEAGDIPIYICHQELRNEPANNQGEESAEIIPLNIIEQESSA


Key:
[1] = target: T1, human calcitonin receptor; assay: IC50 at hCTR divided by IC50 at hAmylin-R (SPA competition assays V and VII)
Procedure: The resulting pellet was resuspended, homogenized and centrifuged (20.000 rpm, 15 min) in a buffer containing 20 mM Na-HEPES and 0.1 mM EDTA (pH 7.4, buffer 2). The resulting pellet was resuspended in buffer 2 and protein concentration was measured (BCA protein Assay, Pierce). The homogenate was kept cold during the whole procedure. The membranes were kept at −80° C. until use. The assay was performed in a 384 well Optiplate (PerkinElmer) in a total volume of 40 ul. Membranes were mixed with SPA beads. Final concentration of membranes 35 ng/μL final and SPA beads was 0.05 mg/well. Test-compounds were dissolved in DMSO and further diluted in assay buffer (50 mM Hepes, pH 7.4, 1 mM CaCl2, 5 mM MgCl₂, 0.1% OA and 0.02% Tween20). […] The final mixture was incubated with shaking at 400 rpm for 120 min at 25° C. prior to centrifugation (1500 rpm, 10 min). Samples were analyzed on TopCounter™ (Packard). The IC₅₀ was calculated using (one site binding competition analysis) GraphPad Prism5 as a measure of receptor affinity.
Membranes were prepared in the following way; the cells were rinsed with PBS and incubated with Versene for approximately 5 min before harvesting. The cells were flushed with PBS and the cell-suspension was centrifuged for 5 min at 1000 rpm. Cells were homogenized (Ultrathurrax) in a buffer containing 20 mM Na-HEPES and 10 mM EDTA (pH 7.4) and centrifuged at 20.000 rpm for 15 min. The resulting pellet was resuspended, homogenized and centrifuged (20.000 rpm, 15 min) in a buffer containing 20 mM Na-HEPES and 0.1 mM EDTA (pH 7.4, buffer 2). The resulting pellet was resuspended in buffer 2 and protein concentration was measured (BCA protein Assay, Pierce). The homogenate was kept cold during the whole procedure. The membranes were kept at −80° C. until use. Assay was performed in a 384 well Optiplate (PerkinElmer) in a total volume of 40 ul. Membranes were mixed with SPA beads.

[2] = target: T1, human calcitonin receptor; assay: SPA competition vs 125I-calcitonin, membranes of BHK cells with human calcitonin receptor (Assay VII)
Procedure: Membranes were prepared in the following way; the cells were rinsed with PBS and incubated with Versene for approximately 5 min before harvesting. The cells were flushed with PBS and the cell-suspension was centrifuged for 5 min at 1000 rpm. Cells were homogenized (Ultrathurrax) in a buffer containing 20 mM Na-HEPES and 10 mM EDTA (pH 7.4) and centrifuged at 20.000 rpm for 15 min. The resulting pellet was resuspended, homogenized and centrifuged (20.000 rpm, 15 min) in a buffer containing 20 mM Na-HEPES and 0.1 mM EDTA (pH 7.4, buffer 2). The resulting pellet was resuspended in buffer 2 and protein concentration was measured (BCA protein Assay, Pierce). The homogenate was kept cold during the whole procedure. The membranes were kept at −80° C. until use. Assay was performed in a 384 well Optiplate (PerkinElmer) in a total volume of 40 ul. Membranes were mixed with SPA beads. Final concentration of membranes 35 ng/μL final and Final concentration of SPA beads was 0.05 mg/well. Test-compounds were dissolved in DMSO and further diluted in assay buffer (50 mM Hepes, pH 7.4, 1 mM CaCl2, 5 mM MgCl₂, 0.1% OA and 0.02% Tween20). […] The final mixture was incubated for 120 min with shaking at 400 rpm at 25° C. prior to centrifugation (1500 rpm, 10 min). Samples were analyzed on TopCounter™ (Packard). The […] was calculated using (one site binding competition analysis) GraphPad Prism5 as a measure of receptor affinity.

Binder | Ratio hCT/hAmylin binding [1] | IC50 [2] [nM]
K([AEEA-AEEA-γGlu-C20 diacid])CNTATCATQRLANFLRHSSPNFGAIPSSTNVGRNTY-NH2 (disulfide 2-7; N-terminus assumed; SMILES CC[C@H](C)[C@H](NC(=O)[C@H](C)NC(=O)CNC(=O)[C@H](Cc1ccccc1)NC(=O)[C@H](CC(N)=O)NC(=O)[C@@H]1CCCN1C(=O)[C@H](CO)NC(=O)[C@H](CO)NC(=O)[C@H](Cc1c[nH]cn1)NC(=O)[C@H](CCCNC(=N)N)NC(=O)[C@H](CC(C)C)NC(=O)[C@H](Cc1ccccc1)NC(=O)[C@H](CC(N)=O)NC(=O)[C@H](C)NC(=O)[C@H](CC(C)C)NC(=O)[C@H](CCCNC(=N)N)NC(=O)[C@H](CCC(N)=O)NC(=O)[C@@H](NC(=O)[C@H](C)NC(=O)[C@@H]1CSSC[C@H](NC(=O)[C@@H](N)CCCCNC(=O)COCCOCCNC(=O)COCCOCCNC(=O)CC[C@H](NC(=O)CCCCCCCCCCCCCCCCCCC(=O)O)C(=O)O)C(=O)N[C@@H](CC(N)=O)C(=O)N[C@@H]([C@@H](C)O)C(=O)N[C@@H](C)C(=O)N[C@@H]([C@@H](C)O)C(=O)N1)[C@@H](C)O)C(=O)N1CCC[C@H]1C(=O)N[C@@H](CO)C(=O)N[C@@H](CO)C(=O)N[C@H](C(=O)N[C@@H](CC(N)=O)C(=O)N[C@H](C(=O)NCC(=O)N[C@@H](CCCNC(=N)N)C(=O)N[C@@H](CC(N)=O)C(=O)N[C@H](C(=O)N[C@@H](Cc1ccc(O)cc1)C(N)=O)[C@@H](C)O)C(C)C)[C@@H](C)O, also called compound 95) | 63.4 | 61.3
K([AEEA-AEEA-γGlu-C20 diacid])CNTATCATQRLANFLRHSSPNFGAIPSSTNVGHNTY-NH2 (disulfide 2-7; N-terminus assumed; SMILES CC[C@H](C)[C@H](NC(=O)[C@H](C)NC(=O)CNC(=O)[C@H](Cc1ccccc1)NC(=O)[C@H](CC(N)=O)NC(=O)[C@@H]1CCCN1C(=O)[C@H](CO)NC(=O)[C@H](CO)NC(=O)[C@H](Cc1c[nH]cn1)NC(=O)[C@H](CCCNC(=N)N)NC(=O)[C@H](CC(C)C)NC(=O)[C@H](Cc1ccccc1)NC(=O)[C@H](CC(N)=O)NC(=O)[C@H](C)NC(=O)[C@H](CC(C)C)NC(=O)[C@H](CCCNC(=N)N)NC(=O)[C@H](CCC(N)=O)NC(=O)[C@@H](NC(=O)[C@H](C)NC(=O)[C@@H]1CSSC[C@H](NC(=O)[C@@H](N)CCCCNC(=O)COCCOCCNC(=O)COCCOCCNC(=O)CC[C@H](NC(=O)CCCCCCCCCCCCCCCCCCC(=O)O)C(=O)O)C(=O)N[C@@H](CC(N)=O)C(=O)N[C@@H]([C@@H](C)O)C(=O)N[C@@H](C)C(=O)N[C@@H]([C@@H](C)O)C(=O)N1)[C@@H](C)O)C(=O)N1CCC[C@H]1C(=O)N[C@@H](CO)C(=O)N[C@@H](CO)C(=O)N[C@H](C(=O)N[C@@H](CC(N)=O)C(=O)N[C@H](C(=O)NCC(=O)N[C@@H](Cc1c[nH]cn1)C(=O)N[C@@H](CC(N)=O)C(=O)N[C@H](C(=O)N[C@@H](Cc1ccc(O)cc1)C(N)=O)[C@@H](C)O)C(C)C)[C@@H](C)O, also called compound 97) | 104 | 58.9

The next lines start with the values.

Ratio hCT/hAmylin binding [1] | IC50 [2] [nM] | Binder
74.1 | 6.74 | K([AEEA-AEEA-γGlu-C20 diacid])CNTATCATQRLANFLRHSSPNFGAIPSSTNVGPNTY-NH2 (disulfide 2-7; N-terminus assumed; SMILES CC[C@H](C)[C@H](NC(=O)[C@H](C)NC(=O)CNC(=O)[C@H](Cc1ccccc1)NC(=O)[C@H](CC(N)=O)NC(=O)[C@@H]1CCCN1C(=O)[C@H](CO)NC(=O)[C@H](CO)NC(=O)[C@H](Cc1c[nH]cn1)NC(=O)[C@H](CCCNC(=N)N)NC(=O)[C@H](CC(C)C)NC(=O)[C@H](Cc1ccccc1)NC(=O)[C@H](CC(N)=O)NC(=O)[C@H](C)NC(=O)[C@H](CC(C)C)NC(=O)[C@H](CCCNC(=N)N)NC(=O)[C@H](CCC(N)=O)NC(=O)[C@@H](NC(=O)[C@H](C)NC(=O)[C@@H]1CSSC[C@H](NC(=O)[C@@H](N)CCCCNC(=O)COCCOCCNC(=O)COCCOCCNC(=O)CC[C@H](NC(=O)CCCCCCCCCCCCCCCCCCC(=O)O)C(=O)O)C(=O)N[C@@H](CC(N)=O)C(=O)N[C@@H]([C@@H](C)O)C(=O)N[C@@H](C)C(=O)N[C@@H]([C@@H](C)O)C(=O)N1)[C@@H](C)O)C(=O)N1CCC[C@H]1C(=O)N[C@@H](CO)C(=O)N[C@@H](CO)C(=O)N[C@H](C(=O)N[C@@H](CC(N)=O)C(=O)N[C@H](C(=O)NCC(=O)N1CCC[C@H]1C(=O)N[C@@H](CC(N)=O)C(=O)N[C@H](C(=O)N[C@@H](Cc1ccc(O)cc1)C(N)=O)[C@@H](C)O)C(C)C)[C@@H](C)O, also called compound 98)
79.6 | 13.2 | K([AEEA-AEEA-γGlu-C20 diacid])CNTATCATQRLANFLRHSSPNFGAIPSSTPVGSNTY-NH2 (disulfide 2-7; N-terminus assumed; SMILES CC[C@H](C)[C@H](NC(=O)[C@H](C)NC(=O)CNC(=O)[C@H](Cc1ccccc1)NC(=O)[C@H](CC(N)=O)NC(=O)[C@@H]1CCCN1C(=O)[C@H](CO)NC(=O)[C@H](CO)NC(=O)[C@H](Cc1c[nH]cn1)NC(=O)[C@H](CCCNC(=N)N)NC(=O)[C@H](CC(C)C)NC(=O)[C@H](Cc1ccccc1)NC(=O)[C@H](CC(N)=O)NC(=O)[C@H](C)NC(=O)[C@H](CC(C)C)NC(=O)[C@H](CCCNC(=N)N)NC(=O)[C@H](CCC(N)=O)NC(=O)[C@@H](NC(=O)[C@H](C)NC(=O)[C@@H]1CSSC[C@H](NC(=O)[C@@H](N)CCCCNC(=O)COCCOCCNC(=O)COCCOCCNC(=O)CC[C@H](NC(=O)CCCCCCCCCCCCCCCCCCC(=O)O)C(=O)O)C(=O)N[C@@H](CC(N)=O)C(=O)N[C@@H]([C@@H](C)O)C(=O)N[C@@H](C)C(=O)N[C@@H]([C@@H](C)O)C(=O)N1)[C@@H](C)O)C(=O)N1CCC[C@H]1C(=O)N[C@@H](CO)C(=O)N[C@@H](CO)C(=O)N[C@H](C(=O)N1CCC[C@H]1C(=O)N[C@H](C(=O)NCC(=O)N[C@@H](CO)C(=O)N[C@@H](CC(N)=O)C(=O)N[C@H](C(=O)N[C@@H](Cc1ccc(O)cc1)C(N)=O)[C@@H](C)O)C(C)C)[C@@H](C)O, also called compound 96)
